The labels stand for the following.
B1: SLC34A2 Ab 12 (antibody, V domains shown)
VH: QVQLQESGPGLVKPSETLSLTCTVSGGSISSSSYYRGWIRQPPGKGLEWIGSIYYSGSTYYNPSLKSRVTISVDTSKNQFSLKLSSVTAADTAVYYCARHPRGSYGANFDYWGQGTLVTVSS
VL: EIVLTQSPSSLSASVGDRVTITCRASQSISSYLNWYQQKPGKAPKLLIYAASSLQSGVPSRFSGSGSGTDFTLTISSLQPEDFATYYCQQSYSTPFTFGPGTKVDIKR
notes: recombinant hIgG1/kappa from TAP products in Expi293
B2: SLC34A2 Ab 11 (antibody, human IgG1, kappa, V domains shown)
VH: QVQLQESGPGLVKPSETLSLTCTVSGGSISSSSYYWGWIRQPPGKGLEWIGSLYYSGSTYYNPSLKSRVTISVDTSKNQFSLKLNSVTAADTAVYYCTRHPRGIAARWGNWFDPWGQGTLVTVSS
VL: EIVLTQSPSSLSASVGDRLTITCRASQTISSYLNWYQQKPGKAPKVLIYAASSLQSGVPSRFSGSGSGTDFTLTISSLQPEDFATYYCQQSFIIPYTFGQGTKLEIKR
notes: as for B1
B3: SLC34A2 Ab 13 (antibody, human IgG1, kappa, V domains shown)
VH: QVQLVESGGGLVQPGRSLRLSCIGSGFTFGEYAMSWVRQAPGKGLEWVGFIRTKPYGGTTEFAASVKGRFTMSRDDSKSIAYLEMNSLKTEDTAVYYCTLIPALRFLEWLPWGQGTLVTVSS
VL: EIVLTQSPSSLSASVGDRVTVTCRANQDINNYLAWYQQTPGKVPKLLIYAASTLQSGVPSRFSGSGSGTDFTLTISSLQPEDVATYYCQNYYSVPWTFGQGTKLEIKR
notes: as for B1
B4: SLC34A2 Ab 9 (antibody, human IgG1, kappa, V domains shown)
VH: QVQLVESGGGLVQPGRSLRLSCSGSGFTSGDYAVSWVRQAPGKGLEWVGFIRTKPYGETTEYAASVKGRFTISRDDSKSIAYLQMNSLKAEDTAVFYCTFIPVSRFLEWLPWGQGIPVTVSS
VL: B3 VL with E1D, V3Q, L4M, S14F, V21I, N26S, N30G, G41E, L104V
notes: recombinant hIgG1/kappa
B5: SLC34A2 Ab 15 (antibody, human IgG1, kappa, V domains shown)
VH: QVQLQESGPGLVKPSETLSLTCTVSGGSVSSASYYWSWIRQPPGKGLEYIGYIYYSGSTYYNPSLKSRVTISIDTSKNQFSLNLRSVTAADTAVYYCARYIVGRPGFNWFDPWGQGTLVTVSS
VL: DIQMTQSPSSLSASVGDRVTITCRASQSISSYLNWYQQKPGKAPKFLISPASSLQSGVPSRFSGSGSGTDFTLTISSLQPEDFATYYCQQSYSIPWTFGQGTKVEIKR
notes: recombinant hIgG1/kappa
B6: SLC34A2 Ab 5 (antibody, human IgG1, kappa, V domains shown)
VH: QVQLQESGPGLVKPSETLSLTCSVSGGSISSSSYYWGWIRQPPGKGLEWIGSIDYSGSTYYNPSLKSRVTISIDTSKNQFSLRLSSVTAAEKAVYYCARHGRGTIGYFDYWGQGTLVTVSS
VL: B5 VL with F46L, S49Y, P50A, Q55L, S56T, S63T, A84G, I94P, W96L, Q100G
notes: recombinant hIgG1/kappa
B7: SLC34A2 Ab 16 (antibody, human IgG1, kappa, V domains shown)
VH: B5 VH with G27D, A32V, Y49W, Y54W, N83K
VL: B5 VL with S28T, F46L, S53N, S93I
notes: recombinant hIgG1/kappa
B8: SLC34A2 Ab 7 (antibody, human IgG1, kappa, V domains shown)
VH: QVQLQESGPELVKPSETLSITCTVSGGSISSRSYYWGWIRQPPGKGLEWIGSIYYGGSTYYNPSLKSRVTISADTSKNQFSLKLNSVTAADTAVFYCVRHPAGYSTRWSAFDIWGQGTMVTVSS
VL: EIVLTQSPSSLSASVGDRVTITCRASQSISSYLNWYQQKPGRAPELLIYAASSLQSGVPSRFSGSGSGTDFTLTISSLQPEDFATYYCQQSFSSLTFGQGTRLEIKR
notes: as for B1
B9: SLC34A2 Ab 8 (antibody, human IgG1, kappa, V domains shown)
VH: QVQLQESGPGLVKPSETLSLTCTVSGGSISSRSYYWGWIRQPPGKGPEWIGSIYYSGSTFYNPSLKSRVTISEDTSKSQFSLKVTSVTAADTAVYYCARHPAGYSSSWSAFDIWGQGTMVTVSS
VL: B8 VL with Q38L, R42K, E45K, Q55H, E81A, S91A, F92Y, S93I
notes: as for B1
B10: SLC34A2 Ab 10 (antibody, human IgG1, kappa, V domains shown)
VH: QVQLLESGGGLVQPGASLRLSCAASGFTFSTYAMTWVRQAPGKGLEWVSGINGGGDTTYYADSVKGRFTISRDNSKNTLYLQMNSLRAEDTAVYYCAVRGYTYGYFFDYWGQGTLVTVSS
VL: DIQMTQSPSSLSASVGDRVTITCRASQGISNYLAWYQQRPGKVPKLLIYAASTLRSGVPSRFSGSGSGTDFTLTISSLQPEDVATYYCQKYNSAPLTFGGGTKVEIKR
notes: recombinant hIgG1/kappa
B11: SLC34A2 Ab 4 (antibody, human IgG1, kappa, V domains shown)
VH: QVQLLESGGGLVQPGGSLRLSCAASGFTFSSYAMNWVRQAPGKGLEWVSAISGGVGNTYYADSVKGRFTISRDNSKNTLYLQMNSLRAEDTAVYYCTKDGPLWGNYFDYWGRGTLVTVSS
VL: B10 VL with D1E, Q3V, M4L, R39K, K45N, A50T, R55Q, L96F, G100P, E105D
notes: as for B1
B12: SLC34A2 Ab 6 (antibody, human IgG1, kappa, V domains shown)
VH: QVQLLESGGGLVQPGGSLRLSCAASGFTFSSSAMAWVRQAPGKGLEWVSAISSSGDNTYYADSVKGRFTISRDTSKNTLSLQMSSLRAEDTAIYYCAKQGTNWGLYFDYWGQGTLVTVSS
VL: B10 VL with T22A, G28V, R39K, A50V, R55Q, K90N, L96W, G100Q, V104L
notes: recombinant hIgG1/kappa
B13: SLC34A2 Ab 14 (antibody, human IgG1, kappa, V domains shown)
VH: QVQLQESGPGLVKPSETLSLTCTVSGGSVSSGSYYWSWIRQPPGKGLEWIGYIFYSGSTYYNPSLKSRVTISVDTSKNQFSLKLTSVTAADTAVYFCARWMTTVKGYFDYWGQGTLVTVSS
VL: EIVLTQSPDFQSVTPKESVTITCRASQSVGSGLHWYQQKPDQSPKLLIKYASQSFSGVPSRFSGSGSGTDFTLTINSLEAEDAATYYCLQSSSLPWTFGQGTKVEIKR
notes: recombinant hIgG1/kappa
B14: SLC34A2 Ab 1 (antibody, human IgG1, kappa, V domains shown)
VH: B13 VH with S33N, Y34F, F54Y, T85R, V87L, F96Y, T103K
VL: B13 VL with S18K, A80V, Y86F
notes: as for B1
B15: SLC34A2 Ab 2 (antibody, human IgG1, kappa, V domains shown)
VH: B13 VH with P42A, F54Y, T59N, T85R, S86A, F96Y, V104I
VL: B13 VL with S18K, A80T, Y87F, L89Q
notes: as for B1

Where a chain is given by its changes, count along the chain named.

The first assay has as its target T1, Human Solute Carrier Family 34 Member 2 (SLC34A2) (human, UniProt O95436 1-690).
T1 construct: Endogenous on OVCAR-3 cells; engineered on 786-O cells in the CAR kinetics assay; also called NaPi2b; NPT2B
T1 sequence: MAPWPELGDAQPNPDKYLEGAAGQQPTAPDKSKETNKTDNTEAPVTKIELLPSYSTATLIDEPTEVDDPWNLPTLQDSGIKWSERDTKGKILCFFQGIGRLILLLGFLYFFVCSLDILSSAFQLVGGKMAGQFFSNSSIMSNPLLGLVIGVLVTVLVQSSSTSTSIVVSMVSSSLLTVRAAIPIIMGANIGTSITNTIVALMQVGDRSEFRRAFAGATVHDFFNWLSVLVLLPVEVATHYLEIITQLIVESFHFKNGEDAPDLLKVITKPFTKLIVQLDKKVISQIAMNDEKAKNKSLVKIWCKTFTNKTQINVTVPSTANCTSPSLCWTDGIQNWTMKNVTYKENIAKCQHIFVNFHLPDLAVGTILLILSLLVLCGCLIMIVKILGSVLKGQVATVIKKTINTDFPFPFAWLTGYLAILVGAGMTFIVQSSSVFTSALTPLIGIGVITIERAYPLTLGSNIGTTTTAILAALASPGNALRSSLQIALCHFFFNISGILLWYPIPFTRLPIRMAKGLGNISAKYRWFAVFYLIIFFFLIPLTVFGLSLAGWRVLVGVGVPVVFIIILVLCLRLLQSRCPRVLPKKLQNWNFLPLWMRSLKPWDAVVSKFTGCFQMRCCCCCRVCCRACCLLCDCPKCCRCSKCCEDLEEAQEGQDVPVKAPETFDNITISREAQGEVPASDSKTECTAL
The assay is described as follows: flow cytometry on OVCAR-3 cells (endogenous human SLC34A2), hIgG1/kappa, 8 five-fold dilutions from 133 nM.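 Note: binding read as geometric mean fluorescence intensity, with non-transfected HEK293 cells serving as the negative control.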
Usually EC50 stands for the concentration giving half of the maximal effect. A higher EC50 goes with lower potency in that assay. Consider B1, for which the EC50 was 5 nM and the “Max Signal by flow cytometry” value turned out to be 305.
B2: it took 6 nM to reach a half-maximal effect (EC50) and the “Max Signal by flow cytometry” value stood at 224.
In the same order, the values of B3 are 41 nM and 233.
In the same order, the values of B4 are 37 nM and 281.
The like results for B5 were, in that order, 8 nM and 346.
For the molecule B6, the response was half-maximal at 5 nM (EC50) and the “Max Signal by flow cytometry” value came to 271.
Regarding B7, the response was half-maximal at 6 nM (EC50) and the “Max Signal by flow cytometry” value was 296.
In the same order, the values of B8 are 16 nM and 278.
In the same order, the values of B9 are 6 nM and 354.
The like results for B10 were, in that order, 20 nM and 218.
With B11, the midpoint of the response, the EC50, lay at 5 nM and the “Max Signal by flow cytometry” value came out at 277.
The like results for B12 were, in that order, 6 nM and 211.
The like results for B13 were, in that order, 9 nM and 288.
For B14, the EC50 turned out to be 7 nM and the “Max Signal by flow cytometry” value stood at 353.
As for B15, the EC50 turned out to be 7 nM and the “Max Signal by flow cytometry” value worked out at 330.

In the next assay the target is T2, ECL-mFc fusion protein (human SLC34A2 ECL2 fused to murine Fc) (human, biotinylated (site not stated)).
T2 construct: The range 234-362 is the ECL2 part counted on human SLC34A2; also called mECL2-Fc protein
T2 chain: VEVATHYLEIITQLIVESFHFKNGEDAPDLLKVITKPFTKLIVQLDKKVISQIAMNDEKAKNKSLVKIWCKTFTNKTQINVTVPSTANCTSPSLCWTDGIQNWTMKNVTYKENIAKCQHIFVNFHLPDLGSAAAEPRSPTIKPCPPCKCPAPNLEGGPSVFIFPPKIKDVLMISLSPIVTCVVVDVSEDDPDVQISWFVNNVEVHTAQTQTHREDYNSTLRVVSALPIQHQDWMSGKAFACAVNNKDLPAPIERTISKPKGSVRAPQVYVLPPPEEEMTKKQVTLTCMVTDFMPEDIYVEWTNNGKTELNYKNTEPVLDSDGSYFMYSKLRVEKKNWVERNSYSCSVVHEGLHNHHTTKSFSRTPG
The assay is described as follows: ELISA, biotinylated antigen on NeutrAvidin plate, anti-human Fc-HRP.
As to B1, the binding result is “binds”.
B3: the binding result is given as “binds”.
Consider B8, for which the binding result was “binds”.
Take B11: the binding result is “binds”.
For the molecule B13, the binding result was “binds”.
Still for that read-out and setting: the entry for B14 is “binds”; for B15 it is “binds”.

The target in the next assay is T3, SLC34A2 peptide fragment (peptide 1) (human, biotinylated (site not stated)).
T3 construct: ELISA antigen captured on NeutrAvidin plates; also called SLC34A2 peptide immunogen
T3 peptide: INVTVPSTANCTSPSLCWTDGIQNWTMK
The assay is described as above.
Regarding B1, the binding result is “binds”.
Regarding B3, the binding result was “binds”.
The same measure, in the same setting: in the case of B6 it was “no binding”; in that of B8, “binds”; in that of B11, “no binding”.
The same measure, in the same setting: the entry for B12 is “no binding”; for B13 it is “binds”.
Still for that read-out and setting: in the case of B14 it was “binds”.
On to B15, for which the binding result was “binds”.

The record behind these values is patent publication US20250297255A1 (ARSENAL BIOSCIENCES, published 2025).
